The target of this assay is HLA-A*24 (human). As to the kind of experiment: UV-ligand exchange, b2m ELISA.

The results in this text go back to US20170189513A1.

Where no end group is shown, it is not given here. A value given as a limit tells only on which side of the number the result lay.

B1: … (SEQ ID No 225) (peptide)
peptide: YYVYIMNHL
As for B1, the peptide exchange yield was in the range of 50 to 75%.

B2: … (SEQ ID No 160) (peptide)
peptide: VYTLDIPVL
In the case of B2, the peptide exchange yield was greater than 75%.

B3: … (SEQ ID No 286) (peptide)
peptide: RYPDNLKHL
The molecule B3 came in with a peptide exchange yield of 20 to 49%.

B4: … (SEQ ID No 159) (peptide)
peptide: LYNKGFIYL
With B4, the peptide exchange yield was greater than 75%.

B5: … (SEQ ID No 214) (peptide)
peptide: LYLKLWNLI
Regarding B5, the peptide exchange yield is 50 to 75%.

B6: … (SEQ ID No 275) (peptide)
peptide: EYINQGDLHEF
B6: the peptide exchange yield is 50 to 75%.

B7: … (SEQ ID No 282) (peptide)
peptide: KFVDSTFYL
For the molecule B7, the peptide exchange yield was greater than 75%.

B8: … (SEQ ID No 167) (peptide)
peptide: NYINRILKL
Molecule B8 showed a peptide exchange yield greater than 75%.

B9: … (SEQ ID No 280) (peptide)
peptide: RYPDNLKHLYL
Regarding B9, the peptide exchange yield was greater than 75%.

B10: … (SEQ ID No 198) (peptide)
peptide: LYLDKATLI
With B10, the peptide exchange yield lay within 50 to 75%.

B11: … (SEQ ID No 194) (peptide)
peptide: EFGSLHLEFL
Molecule B11 registered a peptide exchange yield of less than 20%.

B12: … (SEQ ID No 278) (peptide)
peptide: RYISDQLFTNF
The molecule B12 had a peptide exchange yield greater than 75%.

B13: … (SEQ ID No 164) (peptide)
peptide: KFSSFSLFF
In turn, B13 yielded a peptide exchange yield of 50 to 75%.

B14: … (SEQ ID No 171) (peptide)
peptide: LFIPSSKLLFL
Take B14: the peptide exchange yield was 50 to 75%.

B15: … (SEQ ID No 273) (peptide)
peptide: TYIKPISKL
B15 displayed a peptide exchange yield of 50 to 75%.

B16: … (SEQ ID No 284) (peptide)
peptide: RYLNKAFHI
In turn, B16 came in with a peptide exchange yield of 50 to 75%.

B17: RYFKGLVF (SEQ ID No 188) (peptide)
peptide: RYFKGLVF
For B17, the peptide exchange yield lay within 50 to 75%.

B18: … (SEQ ID No 190) (peptide)
peptide: GFFIFNERF
In the case of B18, the peptide exchange yield lay in the range of 50 to 75%.

B19: … (SEQ ID No 168) (peptide)
peptide: KYQDILETI
Take B19: the peptide exchange yield is greater than 75%.

B20: … (SEQ ID No 224) (peptide)
peptide: QYLENLEKL
The molecule B20 came in with a peptide exchange yield of 50 to 75%.

B21: … (SEQ ID No 217) (peptide)
peptide: FFPPTRQMGLLF
With B21, the peptide exchange yield was greater than 75%.

B22: YFDKVVTL (SEQ ID No 215) (peptide)
peptide: YFDKVVTL
The molecule B22 registered a peptide exchange yield of 20 to 49%.

B23: … (SEQ ID No 163) (peptide)
peptide: DYLKGLASF
B23 came in with a peptide exchange yield greater than 75%.

B24: … (SEQ ID No 216) (peptide)
peptide: QYSSVFKSL
In turn, B24 came in with a peptide exchange yield greater than 75%.

B25: … (SEQ ID No 189) (peptide)
peptide: WYVNGVNYF
In turn, B25 displayed a peptide exchange yield of 20 to 49%.

B26: … (SEQ ID No 274) (peptide)
peptide: AYLHSHALI
In the case of B26, the peptide exchange yield was greater than 75%.

B27: … (SEQ ID No 271) (peptide)
peptide: LYHDIFSRL
The molecule B27 gave a peptide exchange yield greater than 75%.

B28: … (SEQ ID No 183) (peptide)
peptide: VFTSTARAF
On to B28, for which the peptide exchange yield was 50 to 75%.

B29: … (SEQ ID No 206) (peptide)
peptide: EYQENFLSF
As for B29, the peptide exchange yield was 50 to 75%.

B30: … (SEQ ID No 192) (peptide)
peptide: SYALLTYMI
Consider B30, for which the peptide exchange yield is greater than 75%.

B31: … (SEQ ID No 182) (peptide)
peptide: IYQLDTASI
Molecule B31 came in with a peptide exchange yield of 50 to 75%.

B32: … (SEQ ID No 186) (peptide)
peptide: IFPQFLYQF
Turning to B32, the peptide exchange yield is greater than 75%.

B33: … (SEQ ID No 208) (peptide)
peptide: TYTQDFNKF
Consider B33, for which the peptide exchange yield was 50 to 75%.

B34: … (SEQ ID No 169) (peptide)
peptide: AYTLIAPNI
Consider B34, for which the peptide exchange yield was in the range of 50 to 75%.

B35: … (SEQ ID No 185) (peptide)
peptide: IYKVGAPTI
For the molecule B35, the peptide exchange yield is 50 to 75%.

B36: … (SEQ ID No 162) (peptide)
peptide: VFTRVSSFL
Regarding B36, the peptide exchange yield fell in the range of 50 to 75%.

B37: … (SEQ ID No 226) (peptide)
peptide: VYRDETGELF
The molecule B37 displayed a peptide exchange yield of 50 to 75%.

B38: … (SEQ ID No 205) (peptide)
peptide: VHIPEVYLI
Molecule B38 came in with a peptide exchange yield of 50 to 75%.

B39: … (SEQ ID No 289) (peptide)
peptide: KYPVEWAKF
B39 displayed a peptide exchange yield greater than 75%.

B40: … (SEQ ID No 158) (peptide)
peptide: HYSQELSLLYL
Molecule B40 registered a peptide exchange yield greater than 75%.

B41: … (SEQ ID No 227) (peptide)
peptide: IFLDYEAGTLSF
With B41, the peptide exchange yield is greater than 75%.

B42: … (SEQ ID No 276) (peptide)
peptide: VYGFQWRHF
With B42, the peptide exchange yield was greater than 75%.

B43: … (SEQ ID No 191) (peptide)
peptide: VFKASKITF
B43 showed a peptide exchange yield of 50 to 75%.

B44: … (SEQ ID No 179) (peptide)
peptide: MYDSYWRQF
As for B44, the peptide exchange yield is greater than 75%.

B45: … (SEQ ID No 223) (peptide)
peptide: KYIPYKYVI
Consider B45, for which the peptide exchange yield is 50 to 75%.

B46: … (SEQ ID No 180) (peptide)
peptide: IYDDSFIRPVTF
Consider B46, for which the peptide exchange yield lay within 50 to 75%.

B47: … (SEQ ID No 210) (peptide)
peptide: IYTMIYRNL
As to B47, the peptide exchange yield was greater than 75%.

B48: … (SEQ ID No 177) (peptide)
peptide: VYPWLGALL
B48: the peptide exchange yield was greater than 75%.

B49: … (SEQ ID No 272) (peptide)
peptide: QYLQDAYSF
B49 returned a peptide exchange yield greater than 75%.

B50: … (SEQ ID No 221) (peptide)
peptide: RYSTGLAGNLL
As for B50, the peptide exchange yield lay in the range of 50 to 75%.

B51: … (SEQ ID No 288) (peptide)
peptide: VYVSDIQEL
Consider B51, for which the peptide exchange yield was 50 to 75%.

B52: … (SEQ ID No 279) (peptide)
peptide: TYIESASEL
The molecule B52 yielded a peptide exchange yield of 50 to 75%.

B53: … (SEQ ID No 181) (peptide)
peptide: LYLDIINLF
Turning to B53, the peptide exchange yield is greater than 75%.

B54: … (SEQ ID No 166) (peptide)
peptide: YYVESGKLF
The molecule B54 came in with a peptide exchange yield greater than 75%.

B55: … (SEQ ID No 219) (peptide)
peptide: EYPLVINTL
On to B55, for which the peptide exchange yield lay within 50 to 75%.

B56: … (SEQ ID No 173) (peptide)
peptide: IYSWILDHF
Regarding B56, the peptide exchange yield was greater than 75%.

B57: … (SEQ ID No 172) (peptide)
peptide: TYTTVPRVAF
Regarding B57, the peptide exchange yield is greater than 75%.

B58: … (SEQ ID No 187) (peptide)
peptide: TYLRDQHFL
Take B58: the peptide exchange yield is greater than 75%.

B59: … (SEQ ID No 170) (peptide)
peptide: VYEDQVGKF
B59 showed a peptide exchange yield of 20 to 49%.

B60: … (SEQ ID No 211) (peptide)
peptide: YYLEVGKTLI
As to B60, the peptide exchange yield is greater than 75%.

B61: … (SEQ ID No 267) (peptide)
peptide: KYMVYPQTF
For the molecule B61, the peptide exchange yield was greater than 75%.

B62: … (SEQ ID No 184) (peptide)
peptide: VFQNFPLLF
Molecule B62 showed a peptide exchange yield greater than 75%.

B63: … (SEQ ID No 161) (peptide)
peptide: IYLVSIPEL
B63 yielded a peptide exchange yield greater than 75%.

B64: … (SEQ ID No 193) (peptide)
peptide: RFHPTPLLL
Turning to B64, the peptide exchange yield is greater than 75%.

B65: … (SEQ ID No 165) (peptide)
peptide: DYTTWTALL
Turning to B65, the peptide exchange yield was greater than 75%.

B66: … (SEQ ID No 178) (peptide)
peptide: IFIEVFSHF
On to B66, for which the peptide exchange yield fell in the range of 50 to 75%.

B67: … (SEQ ID No 203) (peptide)
peptide: FYSRLLQKF
In turn, B67 registered a peptide exchange yield of 50 to 75%.

B68: … (SEQ ID No 283) (peptide)
peptide: TYGDAGLTYTF
Consider B68, for which the peptide exchange yield was 50 to 75%.

B69: … (SEQ ID No 228) (peptide)
peptide: KYTSWYVAL
B69 showed a peptide exchange yield greater than 75%.
